According to patent publication US20240400654A1:
Substitutions are numbered along the chain they refer to. Numbers in names are those of the source. Where “and” joins values, the source holds several entries; their conditions need not be identical. Equal values may be shown once.

B1: KB001 mouse Fab VL T24A (Fab, V domains shown)
VH: EVQLKQSGPGLVAPSQSLSITCTVSGFSLSIYSVHWVRQPPGKGLEWLGMIWGGGSSDYNSALKSRLSISKDNSKSQVFLKMNSLQTDDTAMYYCARNGNFYAMDYWGQGTSVTVSS
VL: QIVLTQSPAIMSASLGERVTMTCAASSSVSSSFLHWYQQKPGSSPQLWIYSTSNLASGVPARFSGSGSGTSYSLTISSMEAEDAATYYCHQYHHSPYIYTFGGGTKLEIK
B2: KB001 mouse Fab VL S30W (Fab, V domains shown)
VH: B1 VH
VL: B1 VL with A24T, S30W
B3: KB001 mouse Fab VL S27H (Fab, V domains shown)
VH: B1 VH
VL: B1 VL with A24T, S27H
B4: KB001 mouse Fab VL S30I (Fab, V domains shown)
VH: B1 VH
VL: B1 VL with A24T, S30I
B5: KB001 mouse Fab VL T24M (Fab, V domains shown)
VH: B1 VH
VL: B1 VL with A24M
B6: KB001 mouse Fab VL T24N/G67D (Fab, V domains shown)
VH: B1 VH
VL: B1 VL with A24N, G67D
B7: KB001 mouse Fab VL S30D (Fab, V domains shown)
VH: B1 VH
VL: B1 VL with A24T, S30D
B8: KB001 mouse Fab VL S28D (Fab, V domains shown)
VH: B1 VH
VL: B1 VL with A24T, S28D
B9: KB001 mouse Fab VL S26G (Fab, V domains shown)
VH: B1 VH
VL: B1 VL with A24T, S26G
B10: KB001 mouse Fab VL S31Q (Fab, V domains shown)
VH: B1 VH
VL: B1 VL with A24T, S31Q
B11: KB001 mouse Fab VL T24G (Fab, V domains shown)
VH: B1 VH
VL: B1 VL with A24G
B12: KB001 mouse Fab VL S30E (Fab, V domains shown)
VH: B1 VH
VL: B1 VL with A24T, S30E
B13: KB001 mouse Fab VL S28H (Fab, V domains shown)
VH: B1 VH
VL: B1 VL with A24T, S28H
B14: KB001 mouse Fab VL S26T (Fab, V domains shown)
VH: B1 VH
VL: B1 VL with A24T, S26T
B15: KB001 mouse Fab VL S30M (Fab, V domains shown)
VH: B1 VH
VL: B1 VL with A24T, S30M
B16: KB001 mouse Fab VL S27N (Fab, V domains shown)
VH: B1 VH
VL: B1 VL with A24T, S27N
B17: KB001 mouse Fab VL S30L (Fab, V domains shown)
VH: B1 VH
VL: B1 VL with A24T, S30L
B18: KB001 mouse Fab VL S31D (Fab, V domains shown)
VH: B1 VH
VL: B1 VL with A24T, S31D
B19: KB001 mouse Fab VL S27M (Fab, V domains shown)
VH: B1 VH
VL: B1 VL with A24T, S27M
B20: KB001 mouse Fab VL S27K/S68Y (Fab, V domains shown)
VH: B1 VH
VL: B1 VL with A24T, S27K, S68Y
B21: KB001 mouse Fab VL T24N (Fab, V domains shown)
VH: B1 VH
VL: B1 VL with A24N
B22: KB001 mouse Fab VL A25G (Fab, V domains shown)
VH: B1 VH
VL: B1 VL with A24T, A25G
B23: KB001 mouse Fab VL S26P (Fab, V domains shown)
VH: B1 VH
VL: B1 VL with A24T, S26P
B24: KB001 mouse Fab VL S30H (Fab, V domains shown)
VH: B1 VH
VL: B1 VL with A24T, S30H
B25: KB001 mouse Fab VL S30T (Fab, V domains shown)
VH: B1 VH
VL: B1 VL with A24T, S30T
B26: KB001 mouse Fab VL A25E (Fab, V domains shown)
VH: B1 VH
VL: B1 VL with A24T, A25E
B27: KB001 mouse Fab VL A25P (Fab, V domains shown)
VH: B1 VH
VL: B1 VL with A24T, A25P
B28: KB001 mouse Fab VL S28T/S12R (Fab, V domains shown)
VH: B1 VH
VL: B1 VL with S12R, A24T, S28T
B29: KB001 mouse Fab VL S28M (Fab, V domains shown)
VH: B1 VH
VL: B1 VL with A24T, S28M
B30: KB001 mouse Fab VL V29L (Fab, V domains shown)
VH: B1 VH
VL: B1 VL with A24T, V29L
B31: KB001 mouse Fab VL S28N (Fab, V domains shown)
VH: B1 VH
VL: B1 VL with A24T, S28N
B32: KB001 mouse Fab VL A25V (Fab, V domains shown)
VH: B1 VH
VL: B1 VL with A24T, A25V
B33: KB001 mouse Fab VL S27L (Fab, V domains shown)
VH: B1 VH
VL: B1 VL with A24T, S27L
B34: KB001 mouse Fab VL V29I (Fab, V domains shown)
VH: B1 VH
VL: B1 VL with A24T, V29I
B35: KB001 mouse Fab VL S27V (Fab, V domains shown)
VH: B1 VH
VL: B1 VL with A24T, S27V
B36: KB001 mouse Fab VL T24Q (Fab, V domains shown)
VH: B1 VH
VL: B1 VL with A24Q
B37: KB001 mouse Fab VL S27Y (Fab, V domains shown)
VH: B1 VH
VL: B1 VL with A24T, S27Y
B38: KB001 mouse Fab VL S30R (Fab, V domains shown)
VH: B1 VH
VL: B1 VL with A24T, S30R
B39: KB001 mouse Fab VL S27W (Fab, V domains shown)
VH: B1 VH
VL: B1 VL with A24T, S27W
B40: KB001 mouse Fab VL S31W (Fab, V domains shown)
VH: B1 VH
VL: B1 VL with A24T, S31W
B41: KB001 mouse Fab VL S30K (Fab, V domains shown)
VH: B1 VH
VL: B1 VL with A24T, S30K
B42: KB001 mouse Fab VL A25Y (Fab, V domains shown)
VH: B1 VH
VL: B1 VL with A24T, A25Y

molecular target: HRgpA-6H (Porphyromonas gingivalis) (UniProt P28784); assay: ELISA, coated HRgpA-6H
UniProt P28784, sequence (P28784 228-860 limits assumed): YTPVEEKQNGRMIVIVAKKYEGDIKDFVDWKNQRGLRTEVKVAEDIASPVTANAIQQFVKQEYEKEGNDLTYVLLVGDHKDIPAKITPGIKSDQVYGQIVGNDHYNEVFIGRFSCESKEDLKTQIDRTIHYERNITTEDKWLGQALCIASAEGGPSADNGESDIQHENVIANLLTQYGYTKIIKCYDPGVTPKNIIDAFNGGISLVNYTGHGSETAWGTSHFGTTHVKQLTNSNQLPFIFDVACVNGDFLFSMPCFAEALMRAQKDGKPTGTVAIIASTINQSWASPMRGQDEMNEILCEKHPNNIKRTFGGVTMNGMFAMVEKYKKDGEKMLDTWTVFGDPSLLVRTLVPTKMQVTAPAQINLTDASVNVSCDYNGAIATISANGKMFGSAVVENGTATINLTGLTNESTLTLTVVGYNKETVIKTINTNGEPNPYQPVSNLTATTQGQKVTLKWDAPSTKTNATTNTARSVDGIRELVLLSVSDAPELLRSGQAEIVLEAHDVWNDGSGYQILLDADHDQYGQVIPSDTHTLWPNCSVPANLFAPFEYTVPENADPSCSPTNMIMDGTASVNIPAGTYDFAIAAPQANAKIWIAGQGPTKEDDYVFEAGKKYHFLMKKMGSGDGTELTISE

Binder | OD450 nm | Ratio OD(Variant)/OD(WT)
B1 | 0.757 | 0.984
B2 | 0.823 | 0.955
B3 | 0.664 and 0.63 and 0.726 | 0.885 and 0.839 and 0.967
B4 | 0.86 | 0.998
B5 | 0.75 and 0.797 | 0.975 and 1.04
B6 | 0.755 | 0.982
B7 | 0.702 and 0.723 | 0.814 and 0.839
B8 | 0.745 and 0.722 | 0.993 and 0.962
B9 | 0.73 | 0.932
B10 | 0.83 and 0.745 and 0.782 | 0.982 and 0.882 and 0.925
B11 | 0.686 and 0.735 | 0.892 and 0.956
B12 | 0.813 | 0.943
B13 | 0.719 | 0.958
B14 | 0.761 | 0.972
B15 | 0.818 | 0.949
B16 | 0.675 and 0.724 and 0.64 | 0.899 and 0.965 and 0.853
B17 | 0.813 | 0.943
B18 | 0.762 | 0.902
B19 | 0.709 | 0.945
B20 | 0.736 | 0.981
B21 | 0.715 and 0.8 | 0.93 and 1.04

Binder | OD450 nm | Ratio OD(Variant)/OD(WT)
B22 | 0.668 and 0.699 and 0.673 | 0.853 and 0.893 and 0.86
B23 | 0.644 and 0.677 | 0.822 and 0.865
B24 | 0.808 and 0.747 | 0.937 and 0.867
B25 | 0.838 and 0.817 | 0.972 and 0.948
B26 | 0.655 | 0.837
B27 | 0.742 and 0.766 and 0.749 | 0.948 and 0.978 and 0.957
B28 | 0.747 | 0.995
B29 | 0.706 and 0.675 | 0.941 and 0.899
B30 | 0.751 | 0.871
B31 | 0.743 | 0.99
B32 | 0.768 | 0.981
B33 | 0.649 | 0.865
B34 | 0.853 | 0.99
B35 | 0.645 and 0.646 | 0.859 and 0.861
B36 | 0.765 | 0.995
B37 | 0.617 | 0.822
B38 | 0.778 and 0.793 and 0.802 | 0.903 and 0.92 and 0.93
B39 | 0.601 | 0.801
B40 | 0.808 | 0.956
B41 | 0.77 | 0.893
B42 | 0.755 and 0.757 | 0.964 and 0.967
